We go through 38 molecules from patent US20190177408A1 (SUZHOU CONNECT BIOPHARMACEUTICALS, published 2019).

Substitutions are numbered along the chain they refer to.

The labels stand for the following.
B1: L1000H1007 (antibody, V domains shown)
VH: EVQLVQSGGGLVHPGGSLRLSCAGSGFTFSRNAMFWVRQAPGKGLEWVSGIGTGGATSYADSVKGRFTISRDNAKNSLYLQMNSLRAEDMAVYYCARGRYYFDYWGQGTLVTVSS
VL: not shown
notes: human kappa
B2: L1000H1026 (antibody, V domains shown)
VH: B1 VH with Q6E, H13Q, M90T, D103P, Y104W
VL: not shown
notes: human kappa
B3: L1000H1030 (antibody, V domains shown)
VH: B1 VH with Q6E, H13Q, G24A, S58N, M90T, D103P, Y104W
VL: not shown
notes: human kappa
B4: L1000H1021 (antibody, V domains shown)
VH: B1 VH with S58N, M90T, D103P, Y104W
VL: not shown
notes: human kappa
B5: L1013H1000 (antibody, V domains shown)
VH: B1 VH with S58N
VL: EIVLTQSPGTLSLSPGERATLSCRASQSVSNSYLAWYQQKPGQAPRLLIFGASSRATGIPDRFSGSGSGTDFTLTISRLEPEDFAVYYCQQYDHSPPWTFGQGTKVEIK
notes: human kappa
B6: L1016H1000 (antibody, V domains shown)
VH: B1 VH with S58N
VL: B5 VL with N31S
notes: human kappa
B7: L1000H1013 (antibody, V domains shown)
VH: B1 VH with Q6E, G24A, S58N
VL: not shown
notes: human kappa
B8: L1020H1000 (antibody, V domains shown)
VH: B1 VH with S58N
VL: B5 VL with N31S, F50Y, P96A, P97G
notes: human kappa
B9: L1020H1016 (antibody, V domains shown)
VH: B1 VH with S58N, D103P, Y104W
VL: B5 VL with N31S, F50Y, P96A, P97G
notes: human kappa
B10: L1000H1029 (antibody, V domains shown)
VH: B1 VH with Q6E, H13Q, G24A, D103P, Y104W
VL: not shown
notes: human kappa
B11: L1000H1036 (antibody, V domains shown)
VH: B1 VH with K43E, S58N
VL: not shown
notes: human kappa
B12: L1007H1000 (antibody, V domains shown)
VH: B1 VH with S58N
VL: not shown
notes: human kappa
B13: L1000H1031 (antibody, V domains shown)
VH: B1 VH with Q6E, H13Q, G24A, M90T
VL: not shown
notes: human kappa
B14: L1017H1000 (antibody, V domains shown)
VH: B1 VH with S58N
VL: not shown
notes: human kappa
B15: L1000H1012 (antibody, V domains shown)
VH: B1 VH with M90T
VL: not shown
notes: human kappa
B16: L1012H1020 (antibody, V domains shown)
VH: B1 VH with D103P, Y104W
VL: not shown
notes: human kappa
B17: L1020H1031 (antibody, V domains shown)
VH: B1 VH with Q6E, H13Q, G24A, M90T
VL: B5 VL with N31S, F50Y, P96A, P97G
notes: human kappa
B18: L1000H1025 (antibody, V domains shown)
VH: B1 VH with G24A, M90T, D103P, Y104W
VL: not shown
notes: human kappa
B19: L1000H1022 (antibody, V domains shown)
VH: B1 VH with M90T, D103P, Y104W
VL: not shown
notes: human kappa
B20: L1000H1037 (antibody, V domains shown)
VH: B1 VH with S58N, N73E
VL: not shown
notes: human kappa
B21: L1011H1000 (antibody, V domains shown)
VH: B1 VH with S58N
VL: B5 VL with T57P, D93G, H94S
notes: human kappa
B22: L1000H1027 (antibody, V domains shown)
VH: B1 VH with Q6E, G24A, M90T, D103P, Y104W
VL: not shown
notes: human kappa
B23: L1012H1029 (antibody, V domains shown)
VH: B1 VH with Q6E, H13Q, G24A, D103P, Y104W
VL: not shown
notes: human kappa
B24: L1000H1010 (antibody, V domains shown)
VH: B1 VH with H13Q, S58N
VL: not shown
notes: human kappa
B25: L1000H1035 (antibody, V domains shown)
VH: B1 VH with F35H, S58N
VL: not shown
notes: human kappa
B26: L1020H1027 (antibody, V domains shown)
VH: B1 VH with Q6E, G24A, M90T, D103P, Y104W
VL: B5 VL with N31S, F50Y, P96A, P97G
notes: human kappa
B27: L1000H1008 (antibody, V domains shown)
VH: B1 VH with S58N, M90T
VL: not shown
notes: human kappa
B28: L1000H1028 (antibody, V domains shown)
VH: B1 VH with H13Q, G24A, M90T, D103P, Y104W
VL: not shown
notes: human kappa
B29: L1012H1000 (antibody, V domains shown)
VH: B1 VH with S58N
VL: not shown
notes: human kappa
B30: L1012H1031 (antibody, V domains shown)
VH: B1 VH with Q6E, H13Q, G24A, M90T
VL: not shown
notes: human kappa
B31: L1000H1020 (antibody, V domains shown)
VH: B1 VH with D103P, Y104W
VL: not shown
notes: human kappa
B32: L1010H1000 (antibody, V domains shown)
VH: B1 VH with S58N
VL: not shown
notes: human kappa
B33: L1015H1000 (antibody, V domains shown)
VH: B1 VH with S58N
VL: B5 VL with N31S, T57P
notes: human kappa
B34: L1020H1020 (antibody, V domains shown)
VH: B1 VH with D103P, Y104W
VL: B5 VL with N31S, F50Y, P96A, P97G
notes: human kappa
B35: L1012H1007 (antibody, V domains shown)
VH: B1 VH
VL: not shown
notes: human kappa
B36: L1000H1024 (antibody, V domains shown)
VH: B1 VH with H13Q, M90T, D103P, Y104W
VL: not shown
notes: human kappa
B37: L1008H1000 (antibody, V domains shown)
VH: B1 VH with S58N
VL: not shown
notes: human kappa
B38: L1020H1007 (antibody, V domains shown)
VH: B1 VH
VL: B5 VL with N31S, F50Y, P96A, P97G
notes: human kappa

The target in this test is T1, human soluble IL-4Rα (sIL-4Rα) (human, UniProt P24394 26-232).
T1 construct: Bought reagent (PEPRO TECH, Catalog Number 200-04R); also called shIL-4Rα; soluble hIL-4 Rα
T1 sequence: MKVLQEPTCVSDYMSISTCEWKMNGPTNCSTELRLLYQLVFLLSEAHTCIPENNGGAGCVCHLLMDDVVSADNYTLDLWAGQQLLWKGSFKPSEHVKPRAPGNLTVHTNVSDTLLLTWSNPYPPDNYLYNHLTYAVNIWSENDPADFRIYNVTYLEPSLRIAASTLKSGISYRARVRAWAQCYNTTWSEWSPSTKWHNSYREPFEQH
The test is described as follows: ELISA, coated sIL-4Rα, culture supernatant. The protocol:
100 μl of 100 μg/ml sIL-4Rα solution was added to 9.90 ml of PBS, mixed up and down, and then an antigen coating buffer of 1.0 μg/ml was obtained. The prepared antigen coating buffer was added to a 96-well ELISA plate (Corning) with a volume of 100 μl per well. The 96-well ELISA plate was incubated overnight in a refrigerator at 4° C. On the next day; the solution therein was discarded; and PBS containing 2% BSA was added to the 96-well ELISA plate row by row with a volume of 300 μl per well. The 96-well ELISA plate was incubated for 2 hours in a refrigerator at 4° C., Then the PBS containing 2% BSA was discarded and the plate was washed 3 times with PBST. Diluted antibodies to be tested were sequentially added to the corresponding wells, while the normal cell culture supernatants, as negative control samples, were added too. Three duplicate wells were made for each sample with a volume of 100 μl per well. The ELISA plate was wrapped with preservative film (or covered) and incubated for 1 h at […] in a constant temperature incubator. Subsequently, the 96-well ELISA plate was taken out, and the solution therein was discarded. After washing with PBST for 3 times, TMB solution (Solarbio, Catalog Number: PR1200) was added to the 96-well ELISA plate row by row with a volume of 100 μl per well. The 96-well ELISA plate was placed at room temperature for 5 minutes, and 2 M H2SO4 solution was added in immediately to terminate the reaction. The 96-well ELISA plate was placed in flexstation 3 (Molecular Devices), the values of OD450 were read, and the data were collected, calculated and analyzed. Results were expressed relative to the affinity of control antibody 1.
Background: In an ELISA, binding on a coated surface is turned into a signal by an enzyme label.
Take B1: the “OD 450/OD450Control antibody 1” value was found to be 0.37. B2: the “OD 450/OD450Control antibody 1” value was determined as 0.11. In the case of B3, the “OD 450/OD450Control antibody 1” value was found to be 0.2.

As for B4, the “OD 450/OD450Control antibody 1” value was found to be 0.35. For B5 the value was 0.24; for B6, 0.27. For B7 the value was 0.38; for B8, 2.27; for B9, 0.8. For B10 the value was 0.8; for B11, 0.1; for B12, 0.8. As for B13, the “OD 450/OD450Control antibody 1” value worked out at 1.14. For B14 the value was 0.49; for B15, 0.18; for B16, 0.11.

Turning to B17, the “OD 450/OD450Control antibody 1” value came to 1.12.

Turning to B18, the “OD 450/OD450Control antibody 1” value was 0.21. For B19 the value was 0.18. B20: the “OD 450/OD450Control antibody 1” value was -0.01. For B21 the value was 0.9; for B22, 0.44. For B23 the value was 0.11; for B24, 0.11. For B25 the value was 0.22; for B26, 0.4.

As to B27, the “OD 450/OD450Control antibody 1” value was found to be 0.21.

For B28, the “OD 450/OD450Control antibody 1” value is 0.33. For B29 the value was 1.22; for B30, 0.16. For B31 the value was 0.23. For B32 the value was 1; for B33, 0.67. Regarding B34, the “OD 450/OD450Control antibody 1” value was 0.26. For B35 the value was 0.4.

Regarding B36, the “OD 450/OD450Control antibody 1” value worked out at 0.26. For B37 the value was 0.9; for B38, 0.4.
